Data reported in patent US20220213201A1 (PHARMABCINE, published 2022).

B1: 3D6 monoclonal scFv phage (scFv)
chain: QVQLVESGGGLVQPGGSLRLSCIGSGFTFSRYNINWVRQAPGKGLEWVSSISSSGRFIHYAGSVKGRFTVSRDNTKNSVSLQMNSLRAEDTAVYYCARDSPTQGPYYYYGMDVWGQGTTITVSSSYELTQPPSESVAPGKTATITCGGNKIGSKSVHWYQQKPGQAPLMVIYYDSDRPSGIPERFSGSNSGNTATLTISRVEVGDEADYYCQVWDSSSDRPVFGGGTKLTVLG
B2: 2F2 monoclonal scFv phage (scFv)
chain: QVQLVESGGGLVQPGGSLRLSCAASGFTFSSYAMTWVRQAPGKGLEWVSRISGSGGSTNYADSVKGRFTISRDNSKNTLYLQMNSLRAEDTAVYYCARGGLHHGFDIWGQGTMVTVSSSYELTQPPSLSVAPGKTARITCDGDNIESKSVHWYQQKPGQAPVLVIYYDNDRPSGIPERFSGSNSGNTATLTISRVEAGDEADYYCQVWDTYTDQPVFGGGTKLTVLG
B3: anti-TIE2 antibody 1A9 (IgG) (antibody, V domains shown)
VH: QMQLVQSEAEVKKPGASVKVSCKASGYTFNSYDIHWVRQAPGQGLEWMGVVNPPGGTGSTVYAQKFEDRLTLTTDMSTSTAYMELSSLRSEDTAVYYCARDYNRAPPTLDVWGQGTTITVSS
VL: NFMLTQPASVSGSPGQSITISCTGSSSDVGGYNYVSWYQQHPGKAPQLIIYDVTKRPSGVSNRFSGSKSGNSASLTISGLQAEDEADYYCSSYSSSTFYVFGTGTKVTVLG
notes: also called 1A9 clone
B4: 4E2 monoclonal scFv phage (scFv)
chain: QVQLVQSGGGLIQPGGSLRLSCAASGFTFSDYAMHWVRQAPGKGLEWVALISFDGNNQYYADSVKGRFTISRDNSKNTIYLQMNSLRAEDTAVYYCTTDTMSGYDWEDAFDIWGQGTMITVSSDIQMTQSPSSLSASIGDRVTITCRASQSIGRWLAWYQQKPGKAPKLLIYAASSLQSGVPSRFSGSGSGTDFTLTISSLQPEDFATYYCQQSYSTPYTFGQGTKVEIKR
B5: 1A9 monoclonal scFv phage (scFv)
chain: QMQLVQSEAEVKKPGASVKVSCKASGYTFNSYDIHWVRQAPGQGLEWMGVVNPPGGTGSTVYAQKFEDRLTLTTDMSTSTAYMELSSLRSEDTAVYYCARDYNRAPPTLDVWGQGTTITVSSNFMLTQPASVSGSPGQSITISCTGSSSDVGGYNYVSWYQQHPGKAPQLIIYDVTKRPSGVSNRFSGSKSGNSASLTISGLQAEDEADYYCSSYSSSTFYVFGTGTKVTVLG
B6: anti-TIE2 antibody 3D6 (IgG) (antibody, V domains shown)
VH: QVQLVESGGGLVQPGGSLRLSCIGSGFTFSRYNINWVRQAPGKGLEWVSSISSSGRFIHYAGSVKGRFTVSRDNTKNSVSLQMNSLRAEDTAVYYCARDSPTQGPYYYYGMDVWGQGTTITVSS
VL: SYELTQPPSESVAPGKTATITCGGNKIGSKSVHWYQQKPGQAPLMVIYYDSDRPSGIPERFSGSNSGNTATLTISRVEVGDEADYYCQVWDSSSDRPVFGGGTKLTVLG
notes: also called 3D6 clone
B7: anti-TIE2 antibody 2F2 (IgG) (antibody, V domains shown)
VH: QVQLVESGGGLVQPGGSLRLSCAASGFTFSSYAMTWVRQAPGKGLEWVSRISGSGGSTNYADSVKGRFTISRDNSKNTLYLQMNSLRAEDTAVYYCARGGLHHGFDIWGQGTMVTVSS
VL: SYELTQPPSLSVAPGKTARITCDGDNIESKSVHWYQQKPGQAPVLVIYYDNDRPSGIPERFSGSNSGNTATLTISRVEAGDEADYYCQVWDTYTDQPVFGGGTKLTVLG
notes: also called 2F2 clone
B8: anti-TIE2 antibody 11F (IgG) (antibody, V domains shown)
VH: QVQLVESGGGVVQPGRSLRLSCSASGFSFSDHAMHWVRQAPGRGLEWVATVWPDGSNKYYVDSVNGRFSISRDNSKNTVSLQMNSLRAEDTAVYYCARDSGPISRGDLTYWGPGVLVTVSS
VL: NFMLTQPHSVSESPGKTVIISCTGSGGSIASNYVQWYQQRPGSAPTIVIYEDDQRPSGVPDRYSGSTDSSSNSASLTISGLRAEDEADYYCQSYDDTNVVFGGGTKLTVLG
notes: also called 11F antibody; No. 6
B9: anti-TIE2 antibody 4E2 (IgG) (antibody, V domains shown)
VH: QVQLVQSGGGLIQPGGSLRLSCAASGFTFSDYAMHWVRQAPGKGLEWVALISFDGNNQYYADSVKGRFTISRDNSKNTIYLQMNSLRAEDTAVYYCTTDTMSGYDWEDAFDIWGQGTMITVSS
VL: DIQMTQSPSSLSASIGDRVTITCRASQSIGRWLAWYQQKPGKAPKLLIYAASSLQSGVPSRFSGSGSGTDFTLTISSLQPEDFATYYCQQSYSTPYTFGQGTKVEIKR
notes: also called 4E2 clone

Assays:
[1] = target: T1, human TIE2-his (Sino Biological, 10700-H08H) (human, UniProt Q02763 23-745); experiment: ELISA, scFv phage on coated hTIE2-his, HRP anti-M13 detection
T1 construct: Bought protein; also called hTIE2-his; hTIE2; not shown: his tag

[2] = target: T2, mouse Tie2-his (Sino Biological, 51087-M08H) (mouse, UniProt Q02858 23-743); experiment: ELISA, scFv phage on mouse TIE2 antigen, HRP anti-M13 detection
T2 construct: Bought protein; also called mTIE2-his; mTie2-his; not shown: his tag

[3] = target: T1, human TIE2-his (Sino Biological, …); experiment: ELISA, purified IgG on coated hTIE2-his (1 µg/mL), HRP anti-human detection
Description: (§1) Whether or not the binding of TIE2 to the ScFv phage clone was maintained in IgG was determined through ELISA. 1 μg/ml of Ag (hTIE2-his: Sino Biological, 10700-H08H; mTIE2-his: Sino Biological, 51087-M08H) was plated at 100 μl/well onto a 96-well plate and incubated at 4° C. overnight. The next day, the cells grown the day before were centrifuged at 3,000 rpm for 10 minutes and stored at 4° C. The plated Ag was washed 3 times with 0.1% TBST and 200 μl of 2% BSA blocking buffer was added thereto, followed by incubation at 25° C. for 2 hours. After blocking was completed, the resulting product was washed 3 times with 0.1% TBST. […] After phage binding, the resulting product was washed 3 times with 0.1% TBST and 100 μl of HRP-conjugated goat anti-human Ab (1:3000, Sino, 11973-MM05) was added thereto, followed by incubation at 25° C. for 1 hour. After reaction, the resulting product was washed 3 times with 0.1% TBST, 100 μl of TMB (BD TMB substrate reagent set * 555214) was added thereto, color was developed for 3 to 5 minutes, 50 μl of a stop solution was added thereto, and then an assay was performed using an ELISA reader.

[4] = target: T2, mouse Tie2-his (Sino Biological, …); experiment: ELISA, purified IgG on coated mTIE2-his (1 µg/mL), HRP anti-human detection
Description: as §1

[5] = target: T3, human TIE2 overexpressed on CHO-K1 cells (human, UniProt Q02763 23-1124); experiment: flow cytometry on hTIE2/CHO-K1 cells, 2 µg/mL clone, PE anti-human IgG-Fc secondary
T3 construct: whole, on cells; also called hTIE2/CHO-K1; hTIE2 CHO-K1
Description: (§2) In order to determine the binding to cell-expressing TIE2, the binding to the self-established human/mouse TIE2 overexpressing CHO-K1 cell lines (hTIE2/CHO-K1, mTIE2/CHO-K1) was measured using flow cytometry. Each cell line was maintained and cultured, hTIE2 CHO-K1 was washed with PBS, 5 mM EDTA was added thereto to obtain a cell suspension, and each cell was recovered through centrifugation. A cell suspension of 5×10⁶ cells/mL was prepared using FACS-dedicated buffer (PBS containing 2% FBS, 0.05% sodium azide), and 100 μL of the cell suspension was dispensed into each tube. 100 μL of 2 μg/mL clones was added to each test tube and allowed to stand at 4° C. for 30 minutes to induce cell binding. The cells were washed with 2 mL of FACS buffer, 100 μL of a secondary antibody dilution (1/500, PE-conjugated anti-human IgG-Fc polyclonal antibody fragment, *A80-248PE, Bethyl Laboratories Inc. US) was added thereto, and the resulting mixture was allowed to stand at 4° C. for 20 minutes to perform fluorescent labeling. The cells were washed with 2 mL of FACS buffer and then suspended in 200 μL of FACS buffer. […]

[6] = target: T4, mouse TIE2 overexpressed on CHO-K1 cells (mouse, UniProt Q02858 23-1122); experiment: flow cytometry on mTIE2/CHO-K1 cells, PE anti-human IgG-Fc secondary
T4 construct: whole, on cells; also called mTIE2/CHO-K1
Description: as §2

[7] = target: T1, human TIE2-his (Sino Biological, …); experiment: Octet (BLI), antibody fixed on the biosensor, hTIE2-his in solution
Description: (§3) The anti-TIE2 antibody was fixed at the biosensor and tested according to the manufacturer's manual. The binding kinetics at each concentration of human TIE2 and mouse Tie2 were measured to calculate the binding rate constant (kₒₙ), dissociation rate constant (koff), and binding constant (KD) (Table 4).

[8] = target: T2, mouse Tie2-his (Sino Biological, …); experiment: Octet (BLI), antibody fixed on the biosensor, mTie2-His in solution
Description: as §3

T1 sequence (Q02763 23-745 limits assumed): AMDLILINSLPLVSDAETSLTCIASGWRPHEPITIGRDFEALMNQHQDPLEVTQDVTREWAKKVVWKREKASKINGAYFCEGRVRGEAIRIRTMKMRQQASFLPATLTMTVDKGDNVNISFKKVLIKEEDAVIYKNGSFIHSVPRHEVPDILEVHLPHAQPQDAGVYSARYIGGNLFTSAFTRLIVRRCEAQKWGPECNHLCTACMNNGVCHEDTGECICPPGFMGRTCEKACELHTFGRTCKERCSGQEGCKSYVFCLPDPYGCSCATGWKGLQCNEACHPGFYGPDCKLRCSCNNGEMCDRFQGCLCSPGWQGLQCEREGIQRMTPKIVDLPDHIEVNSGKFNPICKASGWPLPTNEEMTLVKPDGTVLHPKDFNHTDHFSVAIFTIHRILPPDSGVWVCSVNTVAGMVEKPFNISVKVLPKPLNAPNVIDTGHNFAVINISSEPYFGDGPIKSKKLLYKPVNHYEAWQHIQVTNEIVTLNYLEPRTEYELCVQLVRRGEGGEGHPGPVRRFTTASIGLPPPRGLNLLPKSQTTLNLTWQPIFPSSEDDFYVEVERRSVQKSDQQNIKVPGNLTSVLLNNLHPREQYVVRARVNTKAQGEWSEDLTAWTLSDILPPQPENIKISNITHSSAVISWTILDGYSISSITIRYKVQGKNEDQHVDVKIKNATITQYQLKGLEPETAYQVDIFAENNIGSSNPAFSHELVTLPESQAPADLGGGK
T2 sequence (Q02858 23-743 limits assumed, stated change not applied): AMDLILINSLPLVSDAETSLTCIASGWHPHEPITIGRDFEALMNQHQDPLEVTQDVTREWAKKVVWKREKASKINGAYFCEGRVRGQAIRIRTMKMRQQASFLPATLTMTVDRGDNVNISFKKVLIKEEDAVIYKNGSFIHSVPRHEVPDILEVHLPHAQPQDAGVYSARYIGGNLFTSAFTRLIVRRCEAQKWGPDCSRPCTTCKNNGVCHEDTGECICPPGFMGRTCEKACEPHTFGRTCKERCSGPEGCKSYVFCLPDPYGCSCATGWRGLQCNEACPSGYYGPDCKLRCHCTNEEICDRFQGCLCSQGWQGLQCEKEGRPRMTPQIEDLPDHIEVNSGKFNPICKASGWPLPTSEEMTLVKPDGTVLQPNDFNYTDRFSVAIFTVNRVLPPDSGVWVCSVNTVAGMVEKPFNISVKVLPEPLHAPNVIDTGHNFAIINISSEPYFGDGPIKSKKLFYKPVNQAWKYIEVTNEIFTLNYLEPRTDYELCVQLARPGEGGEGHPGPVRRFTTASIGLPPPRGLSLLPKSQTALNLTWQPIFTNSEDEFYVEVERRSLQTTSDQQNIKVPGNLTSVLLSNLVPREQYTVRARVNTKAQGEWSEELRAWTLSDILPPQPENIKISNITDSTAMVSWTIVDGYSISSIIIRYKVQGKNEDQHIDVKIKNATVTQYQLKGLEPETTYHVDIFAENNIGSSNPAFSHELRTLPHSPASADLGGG
T4 sequence (Q02858 23-1122): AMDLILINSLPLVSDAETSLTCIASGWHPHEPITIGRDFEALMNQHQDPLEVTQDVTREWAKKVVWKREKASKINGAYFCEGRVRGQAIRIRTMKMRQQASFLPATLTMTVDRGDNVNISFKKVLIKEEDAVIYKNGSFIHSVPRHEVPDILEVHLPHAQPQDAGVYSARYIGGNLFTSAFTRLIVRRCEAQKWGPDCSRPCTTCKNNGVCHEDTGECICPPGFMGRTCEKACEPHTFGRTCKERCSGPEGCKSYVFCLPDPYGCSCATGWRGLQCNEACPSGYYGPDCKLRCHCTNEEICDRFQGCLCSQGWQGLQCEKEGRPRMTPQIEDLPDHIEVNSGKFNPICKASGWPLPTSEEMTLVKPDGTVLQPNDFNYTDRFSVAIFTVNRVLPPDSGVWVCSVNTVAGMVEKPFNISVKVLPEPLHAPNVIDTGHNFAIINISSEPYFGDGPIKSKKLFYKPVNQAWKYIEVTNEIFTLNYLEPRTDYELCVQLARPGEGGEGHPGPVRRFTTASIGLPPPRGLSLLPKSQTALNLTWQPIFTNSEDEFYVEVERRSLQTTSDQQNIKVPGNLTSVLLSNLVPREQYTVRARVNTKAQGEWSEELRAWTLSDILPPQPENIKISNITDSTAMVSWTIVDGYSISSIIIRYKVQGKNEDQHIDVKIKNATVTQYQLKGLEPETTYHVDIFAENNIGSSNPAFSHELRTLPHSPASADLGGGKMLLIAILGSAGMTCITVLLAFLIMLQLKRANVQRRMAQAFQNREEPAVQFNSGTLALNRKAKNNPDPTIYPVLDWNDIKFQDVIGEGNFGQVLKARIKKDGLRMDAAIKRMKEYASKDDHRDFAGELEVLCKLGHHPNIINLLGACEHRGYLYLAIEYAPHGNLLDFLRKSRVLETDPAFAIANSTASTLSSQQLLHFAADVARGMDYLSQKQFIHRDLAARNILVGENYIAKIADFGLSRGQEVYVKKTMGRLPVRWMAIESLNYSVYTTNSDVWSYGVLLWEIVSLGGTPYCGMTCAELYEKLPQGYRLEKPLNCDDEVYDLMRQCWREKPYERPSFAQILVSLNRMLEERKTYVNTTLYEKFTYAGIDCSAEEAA
T3 sequence (Q02763 23-1124): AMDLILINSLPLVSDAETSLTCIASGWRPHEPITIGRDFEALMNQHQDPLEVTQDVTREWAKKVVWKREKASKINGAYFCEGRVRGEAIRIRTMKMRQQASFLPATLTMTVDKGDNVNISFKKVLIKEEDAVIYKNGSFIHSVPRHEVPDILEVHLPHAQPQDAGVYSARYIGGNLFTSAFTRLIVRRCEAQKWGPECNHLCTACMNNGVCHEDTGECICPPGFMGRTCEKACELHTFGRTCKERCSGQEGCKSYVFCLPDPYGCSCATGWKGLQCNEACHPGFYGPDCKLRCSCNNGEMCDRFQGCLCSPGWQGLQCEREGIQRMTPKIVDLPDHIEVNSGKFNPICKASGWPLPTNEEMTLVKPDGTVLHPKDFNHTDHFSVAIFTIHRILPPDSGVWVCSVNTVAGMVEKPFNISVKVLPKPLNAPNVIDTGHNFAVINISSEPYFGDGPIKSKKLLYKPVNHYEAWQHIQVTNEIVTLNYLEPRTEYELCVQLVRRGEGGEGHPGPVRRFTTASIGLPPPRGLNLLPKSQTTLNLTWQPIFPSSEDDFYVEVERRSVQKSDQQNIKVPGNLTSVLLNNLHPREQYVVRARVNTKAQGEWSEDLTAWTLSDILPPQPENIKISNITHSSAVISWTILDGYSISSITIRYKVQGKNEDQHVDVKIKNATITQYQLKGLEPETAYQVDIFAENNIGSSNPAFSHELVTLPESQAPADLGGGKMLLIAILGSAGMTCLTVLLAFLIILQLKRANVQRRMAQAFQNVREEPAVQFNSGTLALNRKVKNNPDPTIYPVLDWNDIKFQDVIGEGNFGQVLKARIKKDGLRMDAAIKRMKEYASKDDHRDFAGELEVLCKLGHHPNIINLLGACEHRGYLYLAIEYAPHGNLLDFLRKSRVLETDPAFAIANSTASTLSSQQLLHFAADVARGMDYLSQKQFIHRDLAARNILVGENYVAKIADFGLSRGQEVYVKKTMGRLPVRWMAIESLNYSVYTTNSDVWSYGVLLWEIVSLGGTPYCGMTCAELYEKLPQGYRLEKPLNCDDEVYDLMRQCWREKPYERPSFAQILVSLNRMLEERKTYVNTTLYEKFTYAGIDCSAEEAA

Binder | Human ELISA [1] | Mouse ELISA [2] | binding result [4] | Kd [7] | koff [7] | kon [7] | further results
B1 | 2.1 | 0.1 | – | – | – | – | –
B2 | 1.9 | 0.1 | – | – | – | – | –
B3 | – | – | no binding | – | – | – | binding result [3]: binds; binding result [5]: binds
B4 | 1.2 | 0.4 | – | – | – | – | –
B5 | 2.4 | 0 | – | – | – | – | –
B6 | – | – | no binding | – | – | – | binding result [6]: no binding; binding result [3]: binds; binding result [5]: binds
B7 | – | – | no binding | 0.794 nM | 0.000116 s⁻¹ | 146000 M⁻¹ s⁻¹ | binding result [6]: no binding
B8 | – | – | – | 2.76 nM | 0.000152 s⁻¹ | 55300 M⁻¹ s⁻¹ | –
B9 | – | – | – | < 0.001 nM | < 1e-07 s⁻¹ | 106000 M⁻¹ s⁻¹ | Kd [8]: 13.8 nM; koff [8]: 0.00291 s⁻¹; kon [8]: 212000 M⁻¹ s⁻¹
